Ends that are not written are not given here. * marks the point of attachment. Biotin = O=C1N[C@H]2[C@H](CS[C@H]2CCCCC(=O)*)N1
Experiments:
Experiment in all cases: peptide or protein array; E. coli proteome chip: purified His-tagged proteins printed in duplicate on Fullmoon slides, blocked with 1% BSA; 10 nM N-terminal biotinylated LfcinB with 1% BSA, room temperature, 1 h; detected with DyLight 649-labeled streptavidin, ratio to DyLight 549-labeled anti-His antibody; ProCAT normalisation, local cut-off; triplicate chips
Details in all cases: both partners purified
GloA = biological target: T1, GloA (E. coli K-12, UniProt P0AC81 1-135)
T1 construct: GloA, E. coli K-12
T1 sequence (looked up): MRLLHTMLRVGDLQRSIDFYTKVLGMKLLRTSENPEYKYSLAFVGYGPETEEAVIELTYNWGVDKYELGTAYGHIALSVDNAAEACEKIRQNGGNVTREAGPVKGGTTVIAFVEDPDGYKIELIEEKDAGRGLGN

YggF = biological target: T2, YggF (E. coli K-12, UniProt P21437 1-321)
T2 construct: YggF, E. coli K-12
T2 sequence (looked up): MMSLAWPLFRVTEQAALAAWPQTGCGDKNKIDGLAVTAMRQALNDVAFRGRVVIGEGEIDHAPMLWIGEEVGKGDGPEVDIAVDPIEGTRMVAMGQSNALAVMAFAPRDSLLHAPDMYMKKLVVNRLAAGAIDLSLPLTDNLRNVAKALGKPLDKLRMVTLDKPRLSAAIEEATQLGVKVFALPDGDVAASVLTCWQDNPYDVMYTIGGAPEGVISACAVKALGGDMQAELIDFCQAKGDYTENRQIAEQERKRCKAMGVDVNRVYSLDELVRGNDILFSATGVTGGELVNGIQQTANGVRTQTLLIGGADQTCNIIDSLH

YgfJ = biological target: T3, YgfJ (E. coli K-12, UniProt Q46810 1-192)
T3 construct: YgfJ, E. coli K-12
T3 sequence (looked up): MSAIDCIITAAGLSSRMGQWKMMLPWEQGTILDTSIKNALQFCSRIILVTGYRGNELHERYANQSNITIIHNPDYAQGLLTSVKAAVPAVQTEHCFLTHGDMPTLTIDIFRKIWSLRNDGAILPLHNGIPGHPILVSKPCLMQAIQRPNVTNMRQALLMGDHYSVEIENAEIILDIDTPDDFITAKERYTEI

FimZ = biological target: T4, FimZ (E. coli K-12, UniProt P0AEL8 1-210)
T4 construct: FimZ, E. coli K-12
T4 sequence (looked up): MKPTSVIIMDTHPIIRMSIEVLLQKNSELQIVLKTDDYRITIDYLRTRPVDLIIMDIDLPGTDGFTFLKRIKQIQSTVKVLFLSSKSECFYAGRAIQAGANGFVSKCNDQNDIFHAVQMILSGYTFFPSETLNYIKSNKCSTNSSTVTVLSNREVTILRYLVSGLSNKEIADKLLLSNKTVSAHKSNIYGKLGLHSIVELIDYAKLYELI

AceK = biological target: T5, AceK (E. coli K-12, UniProt P11071 1-578)
T5 construct: AceK, E. coli K-12
T5 sequence (looked up): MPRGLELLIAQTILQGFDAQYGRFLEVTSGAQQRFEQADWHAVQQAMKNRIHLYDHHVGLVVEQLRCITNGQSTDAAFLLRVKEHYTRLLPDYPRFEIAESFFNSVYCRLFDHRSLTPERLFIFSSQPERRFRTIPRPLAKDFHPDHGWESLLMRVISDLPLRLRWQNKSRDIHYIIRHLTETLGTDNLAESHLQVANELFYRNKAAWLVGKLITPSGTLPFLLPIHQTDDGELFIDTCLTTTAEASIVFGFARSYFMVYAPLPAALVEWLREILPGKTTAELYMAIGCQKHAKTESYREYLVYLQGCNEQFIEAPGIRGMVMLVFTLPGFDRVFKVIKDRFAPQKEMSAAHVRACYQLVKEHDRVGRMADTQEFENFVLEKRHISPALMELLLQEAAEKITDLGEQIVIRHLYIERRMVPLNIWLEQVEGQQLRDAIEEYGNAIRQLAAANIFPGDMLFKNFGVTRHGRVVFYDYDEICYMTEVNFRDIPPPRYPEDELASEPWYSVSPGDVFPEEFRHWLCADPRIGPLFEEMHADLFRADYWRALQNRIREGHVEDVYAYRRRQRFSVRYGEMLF

Measured: binding result

B1: N-terminal biotinylated Lactoferricin B (peptide, UniProt P24627 36-60, looked up)
peptide: Biotin-FKCRRWQWRMKKLGAPSITCVRRAF
modifications: ends and bridges not checked
notes: lactoferricin B (LfcinB), cationic antimicrobial peptide of 25 amino acids; also called biotinylated LfcinB; biotin-labeled LfcinB; source: bought: Kelowna Inc
binds: all assays above
